# How the values were obtained:
# [1] = target: T1, AT4 receptor (Oryctolagus cuniculus, UniProt G1SFU4); assay: 125I-AIV binding and competition, rabbit heart P2 membranes; settings: competition of 0.5 nM 125I-AIV, 120 min, 37° C.
# T1 sequence (G1SFU4 1-1025): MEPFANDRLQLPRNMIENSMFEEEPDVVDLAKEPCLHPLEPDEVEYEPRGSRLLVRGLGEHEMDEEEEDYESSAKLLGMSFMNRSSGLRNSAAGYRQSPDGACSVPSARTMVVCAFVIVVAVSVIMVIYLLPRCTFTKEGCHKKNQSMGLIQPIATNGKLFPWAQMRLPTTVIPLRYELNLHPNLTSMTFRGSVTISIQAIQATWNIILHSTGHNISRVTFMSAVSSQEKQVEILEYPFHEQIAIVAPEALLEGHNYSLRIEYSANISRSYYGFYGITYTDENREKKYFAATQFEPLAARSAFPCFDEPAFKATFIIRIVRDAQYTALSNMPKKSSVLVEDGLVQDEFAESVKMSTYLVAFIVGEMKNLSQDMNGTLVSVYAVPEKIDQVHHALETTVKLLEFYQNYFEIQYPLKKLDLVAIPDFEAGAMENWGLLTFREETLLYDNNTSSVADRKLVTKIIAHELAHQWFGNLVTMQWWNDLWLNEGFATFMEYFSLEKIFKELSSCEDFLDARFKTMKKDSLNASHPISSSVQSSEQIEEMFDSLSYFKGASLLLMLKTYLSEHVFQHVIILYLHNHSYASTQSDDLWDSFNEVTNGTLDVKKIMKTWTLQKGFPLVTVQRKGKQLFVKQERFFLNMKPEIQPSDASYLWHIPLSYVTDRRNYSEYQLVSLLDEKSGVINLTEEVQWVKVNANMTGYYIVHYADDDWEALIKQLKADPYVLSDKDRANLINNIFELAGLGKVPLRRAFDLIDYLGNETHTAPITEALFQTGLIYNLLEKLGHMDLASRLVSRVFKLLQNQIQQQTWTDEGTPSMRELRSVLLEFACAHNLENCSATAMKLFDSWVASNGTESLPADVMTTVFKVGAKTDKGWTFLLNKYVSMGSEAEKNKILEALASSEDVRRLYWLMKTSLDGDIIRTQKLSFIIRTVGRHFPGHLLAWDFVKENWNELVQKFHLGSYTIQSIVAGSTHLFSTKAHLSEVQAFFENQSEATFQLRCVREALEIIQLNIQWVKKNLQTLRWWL
# [2] = target: T2, AT4 receptor (Bos taurus, UniProt F1N1Q8); assay: 125I-AIV binding and competition, coronary venular endothelial cell (CVEC) membranes; set-up: species or system bovine; settings: competition of 0.5 nM 125I-AIV; read-out: Ki
# T2 sequence (F1N1Q8 1-1022): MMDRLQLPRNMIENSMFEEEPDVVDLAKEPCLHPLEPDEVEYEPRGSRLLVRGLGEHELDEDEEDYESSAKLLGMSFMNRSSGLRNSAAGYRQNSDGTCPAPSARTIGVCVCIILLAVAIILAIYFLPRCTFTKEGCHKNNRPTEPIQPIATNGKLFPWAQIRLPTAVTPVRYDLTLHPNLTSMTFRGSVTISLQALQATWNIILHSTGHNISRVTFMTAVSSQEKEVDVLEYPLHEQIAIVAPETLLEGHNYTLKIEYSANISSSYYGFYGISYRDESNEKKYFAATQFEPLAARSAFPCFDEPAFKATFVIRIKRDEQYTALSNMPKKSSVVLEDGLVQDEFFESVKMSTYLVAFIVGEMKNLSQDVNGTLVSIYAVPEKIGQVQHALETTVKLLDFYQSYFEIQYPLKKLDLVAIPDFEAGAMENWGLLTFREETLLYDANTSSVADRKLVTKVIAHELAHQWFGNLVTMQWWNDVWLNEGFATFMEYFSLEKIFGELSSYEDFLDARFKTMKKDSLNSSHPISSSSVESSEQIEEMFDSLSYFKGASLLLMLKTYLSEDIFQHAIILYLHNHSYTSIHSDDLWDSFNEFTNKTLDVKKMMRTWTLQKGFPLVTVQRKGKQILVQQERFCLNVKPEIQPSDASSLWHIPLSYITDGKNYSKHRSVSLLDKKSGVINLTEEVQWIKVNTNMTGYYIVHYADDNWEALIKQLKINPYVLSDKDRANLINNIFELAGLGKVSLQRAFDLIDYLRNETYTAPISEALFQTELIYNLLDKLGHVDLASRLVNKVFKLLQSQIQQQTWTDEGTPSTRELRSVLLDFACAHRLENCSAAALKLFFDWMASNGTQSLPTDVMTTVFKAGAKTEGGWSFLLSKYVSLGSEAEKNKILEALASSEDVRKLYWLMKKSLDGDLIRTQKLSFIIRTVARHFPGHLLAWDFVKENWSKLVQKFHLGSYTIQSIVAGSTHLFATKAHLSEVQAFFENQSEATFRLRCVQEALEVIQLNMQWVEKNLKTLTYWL
# [3] = tested on: rats; assay: Passive avoidance conditioning after icv injection; assay type: in vivo, rat
# [4] = in vivo; cited from earlier work
substance,measurement,setting,value
Asp1 Arg2 Val3 Tyr4 Ile5 His6 Pro7 Phe8 (DRVYIHPF) [AII],Ki,[1],> 1 µM
same,Ki,[2],0.194 ± 0.0445 µM
same,passive avoidance latency / cognitive effect (in words),[3],no specific effect
same,metabolized during transit through the kidney,[4],72-76%

# Source: patent US5854388A, “Angiotensin IV peptides and receptor” (Washington State University Research Foundation, priority 1994, dated 1998)
